Assay [1] concerns the target T1, FcRn (UniProt P55899 24-297; P61769 21-119).
T1 construct: also called neonatal receptor
Put plainly: SPR, representative sensorgram with FcRn, pH 6.0.

Assay [2] addresses T2, human TL1A (human, UniProt O95150 72-251).
T2 construct: Antigen in SPR and ELISA; Also used here for places that print only 'TL1A' and for endogenous TL1A in human whole blood; also called TNFSF15
T2 sequence (looked up): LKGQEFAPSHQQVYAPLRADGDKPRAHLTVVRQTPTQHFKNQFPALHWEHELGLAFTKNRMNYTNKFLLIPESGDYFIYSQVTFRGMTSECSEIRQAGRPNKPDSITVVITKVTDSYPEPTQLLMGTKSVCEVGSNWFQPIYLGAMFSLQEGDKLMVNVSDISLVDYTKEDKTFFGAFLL
Kind of assay: SPR, representative sensorgram with Human TL1A. On the technique in general: SPR reads the build-up and loss of mass on a sensor chip optically.

The target in assay [3] is T3, Cyno TL1A (cyno, UniProt G7PRK8 72-251).
T3 sequence: T2 sequence (looked up) with F39L, I78V
Kind of assay: SPR, representative sensorgram with Cyno TL1A.

Assay [4] deals with T2, human TL1A. Kind of assay: SPR, mAb format, average.
Assay [5] has as its target T3, Cyno TL1A. Put plainly: SPR, mAb format, average.
For a further assay, the target named is T4, mouse TL1A (mouse, UniProt Q5UBV8 76-252, limits assumed).
T4 sequence (looked up): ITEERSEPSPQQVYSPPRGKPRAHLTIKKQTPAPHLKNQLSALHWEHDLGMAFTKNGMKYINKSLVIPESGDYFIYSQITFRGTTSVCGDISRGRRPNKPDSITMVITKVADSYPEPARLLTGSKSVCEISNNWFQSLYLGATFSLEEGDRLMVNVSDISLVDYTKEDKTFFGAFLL
Kind of assay: SPR, mAb format, average.

Assay [6] concerns the target T2, human TL1A. Put plainly: SPR, mAb format, average. This is another data set of the same source.
Assay [7] deals with T2, human TL1A. Put plainly: SPR, mAb format, average. This is another data set of the same source.
Assay [8] has as its target T1, FcRn. Kind of assay: SPR, mAb format, FcRn at pH 6.0, average.

Results on one molecule are retold here after patent publication US20250109209A1 (ABSCI, published 2025).

Where a chain is given by its changes, count along the chain named.

T1 sequence (P55899 24-297 limits assumed, chain 1 of 2): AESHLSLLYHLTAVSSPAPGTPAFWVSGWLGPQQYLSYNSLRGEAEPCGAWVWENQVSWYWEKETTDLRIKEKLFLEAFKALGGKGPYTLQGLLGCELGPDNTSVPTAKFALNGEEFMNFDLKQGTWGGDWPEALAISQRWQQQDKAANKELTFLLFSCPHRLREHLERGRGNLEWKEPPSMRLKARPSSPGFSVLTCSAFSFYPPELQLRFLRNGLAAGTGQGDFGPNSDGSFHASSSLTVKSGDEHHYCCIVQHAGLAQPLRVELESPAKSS
T1 sequence (P61769 21-119 limits assumed, chain 2 of 2): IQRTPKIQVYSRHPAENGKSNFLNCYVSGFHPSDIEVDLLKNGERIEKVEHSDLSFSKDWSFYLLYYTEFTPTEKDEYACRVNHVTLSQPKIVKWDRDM

B1: Antibody 3 (mAb format) (antibody, human IgG1, kappa, N297A)
heavy: QVQLQESGPGLVRPSQTLSLTCTVSGFDIQDTYMHWVRQRPGRGLEWMGRIEPAGGHTKYNPSLKSRVTITRDTSKNQVSLRLSSVTAADTAVYYCVRSGGLPDAWGQGSLVTVSSASTKGPSVFPLAPSSKSTSGGTAALGCLVKDYFPEPVTVSWNSGALTSGVHTFPAVLQSSGLYSLSSVVTVPSSSLGTQTYICNVNHKPSNTKVDKKVEPKSCDKTHTCPPCPAPELLGGPSVFLFPPKPKDTLMISRTPEVTCVVVDVSHEDPEVKFNWYVDGVEVHNAKTKPREEQYASTYRVVSVLTVLHQDWLNGKEYKCKVSNKALPAPIEKTISKAKGQPREPQVYTLPPSRDELTKNQVSLTCLVKGFYPSDIAVEWESNGQPENNYKTTPPVLDSDGSFFLYSKLTVDKSRWQQGNVFSCSVLHEALHSHYTQKSLSLSPGK
light: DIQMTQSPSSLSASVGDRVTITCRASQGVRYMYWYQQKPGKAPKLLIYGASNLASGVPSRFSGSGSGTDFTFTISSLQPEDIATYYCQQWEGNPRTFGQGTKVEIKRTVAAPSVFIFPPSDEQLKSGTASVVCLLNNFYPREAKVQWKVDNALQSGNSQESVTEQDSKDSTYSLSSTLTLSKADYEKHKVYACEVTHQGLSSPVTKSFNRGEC
notes: also called high priority lead mAb
In general, Kd refers to the equilibrium constant for the complex coming apart. Read a low Kd as higher affinity. For the molecule B1, the Kd was 14 nM with FcRn [1]; less than 0.044 nM in the assay with human TL1A [2]; less than 0.031 nM with Cyno TL1A [3]; 0.044 nM in the assay with human TL1A [4]; 0.032 nM with Cyno TL1A [5]; 117 nM with mouse TL1A. Further, the Kd with human TL1A [6] was determined as 0.044 nM; in the assay with human TL1A [7] it was 0.044 nM; in the assay with FcRn [8] it was 16 nM.
